From the RNAGym collection of RNA variant scans (doi:10.7554/elife.80360) come the findings set out here.

B1: Hairpin Ribozyme (parent)
chain: GUCCUCUUUCACGUGCGCGUGAAAGAGAGAAGUGAACCAGAGAAACACACGUUGUGGUAUAUUACCUGGUA

This data set covers variants of B1. Nature of the data set: self-cleavage, relative activity (ratio to wild type); higher = more cleavage; co-transcriptional.
For the variant G29C A43G, the self-cleavage is 0.261.
Next, U33A U58A: 0.0766; U63A G69A: 0.153.
On to C10U A49U, for which the self-cleavage came to 0.0687.
Regarding G1U A24C, the self-cleavage amounted to 0.162.
As to U5G U70A, the self-cleavage stood at 0.204.
Consider G32C C37G, for which the self-cleavage was 0.15.
With A30G G54C the figure was 0.178.
On to G51U U60A, for which the self-cleavage was found to be 1.11.
Take A11G C65G: the self-cleavage was determined as 0.31.
On to A35C C66U, for which the self-cleavage was found to be 0.558.
Consider A49G A61C, for which the self-cleavage stood at 0.0946.
Consider C10G C65A, for which the self-cleavage turned out to be 0.746.
For the variant A22C U53A, the self-cleavage stood at 0.81.
With G54A G68C, the self-cleavage turned out to be 0.208.
On to A43U A47C, for which the self-cleavage was 0.178.
Regarding U9A G29U, the self-cleavage was 0.144.
Next, A28G A49U: 0.118.
As for G19U U52A, the self-cleavage came to 0.881.
G13A G54C: the self-cleavage worked out at 0.346.
With C46U G68A, the self-cleavage stood at 0.0828.
Turning to C10A A44G, the self-cleavage is 0.178.
As for A24C U33G, the self-cleavage was 0.152.
Turning to C48G U52G, the self-cleavage came out at 0.225.
U14C A26C: the self-cleavage worked out at 0.727.
Take U14C U62G: the self-cleavage is 0.218.
With G15U A24C, the self-cleavage is 1.08.
With G15C A39C the figure was 0.463; with G56U A59U, 0.171.
As to G13A G15U, the self-cleavage was found to be 1.1.
Next, U8A U53A: 0.763; G13C A64G: 0.448; A35C A44G: 0.0678.
As for U5G G54C, the self-cleavage came to 0.212.
With G13U A30C the figure was 0.166; with A35C G68U, 0.226.
Take A26G A45U: the self-cleavage stood at 0.148.
For the variant A43G A49C, the self-cleavage worked out at 0.116.
Next, U58C A71G: 1.31; C4G C50G: 0.0987.
Take U9G C48G: the self-cleavage came to 0.0994.
As for G57A U62G, the self-cleavage is 0.273.
Consider U33C U60A, for which the self-cleavage came to 0.14.
With C18G A35U the figure was 0.544; with U14A G68U, 0.307; with G21U C37A, 0.267.
Turning to G57U U70G, the self-cleavage was found to be 0.225.
Consider G57C, for which the self-cleavage worked out at 0.166.
With A30U U53C the figure was 0.041.
As for A43U U70G, the self-cleavage was 0.0463.
Consider U9A G69A, for which the self-cleavage came out at 0.296.
As for G27A A41U, the self-cleavage came out at 0.744.
With C48U C66G the figure was 0.138; with U60A A64U, 0.0988.
With G56U U63C, the self-cleavage came to 0.169.
With G25A A36C the figure was 0.301.
Consider A44U U63C, for which the self-cleavage turned out to be 0.135.
As to U58G A59G, the self-cleavage came out at 0.143.
With U55A U67A the figure was 0.219; with C4U G57C, 0.226; with G13U G19A, 0.73.
As to A11G G29C, the self-cleavage was 0.177.
With A30C G32A, the self-cleavage came out at 0.145.
Consider A23G C37U, for which the self-cleavage was 0.466.
Regarding G13A U55C, the self-cleavage was 0.214.
As to A44U A64C, the self-cleavage turned out to be 0.216.
Take C10G G51C: the self-cleavage was determined as 0.585.
With C6G G27C, the self-cleavage turned out to be 0.174.
As for U5G A45G, the self-cleavage is 0.121.
Regarding U52A C66A, the self-cleavage turned out to be 0.398.
Turning to U5C G42C, the self-cleavage is 0.327.
With C38A U52G the figure was 0.0831.
Regarding C4A G32U, the self-cleavage was 0.168.
For U9A, the self-cleavage is 0.691.
With A49C U63G the figure was 0.153; with A47C C65G, 0.203.
Next, U9A U63C: 0.205; G42C U67A: 0.0793; G17U A39C: 0.479.
For the variant C12A A35U, the self-cleavage was 0.635.
For the variant A49G A64G, the self-cleavage was 0.155.
Take C3A G34A: the self-cleavage was determined as 1.07.
For A26C A28U, the self-cleavage turned out to be 0.291.
For G25U A43C, the self-cleavage is 0.166.
A36G U70C: the self-cleavage came out at 1.35.
A47G G69C: the self-cleavage stood at 0.112.
C6A U55A: the self-cleavage was 0.202.
With G56C A59G the figure was 0.205.
Next, G21A U55A: 0.177.
On to A35U C38G, for which the self-cleavage was 0.235.
For the variant U7C G17C, the self-cleavage was determined as 0.527.
For the variant C3G U8C, the self-cleavage came out at 0.166.
Turning to C18A G56U, the self-cleavage stood at 0.196.
Next, U53G U58G: 0.405.
Next, G56A G68C: 0.0908; G19A G21A: 0.659.
On to G1U C10U, for which the self-cleavage was found to be 0.132.
Regarding G21A U63A, the self-cleavage worked out at 0.14.
For the variant C6G U14C, the self-cleavage worked out at 0.449.
As to C18U A71C, the self-cleavage was 1.33.
Next, U33G U53C: 0.204; G15U C37U: 0.784.
For the variant C18A C38A, the self-cleavage turned out to be 0.132.
As to C4A U62C, the self-cleavage amounted to 0.118.
For U8C U53G, the self-cleavage came to 0.509.
On to G17A U67C, for which the self-cleavage was determined as 0.163.
With A11C G42U, the self-cleavage was found to be 0.214.
On to U9A G32C, for which the self-cleavage was determined as 0.178.
Regarding A39G A44U, the self-cleavage came out at 0.103.
Consider G1A G27A, for which the self-cleavage was found to be 0.144.
A39C G54C: the self-cleavage was 0.213.
Next, U14C A24C: 0.943; G25U A28C: 0.233.
Turning to U58G U60A, the self-cleavage came out at 0.714.
For C16U A41C, the self-cleavage was found to be 1.4.
For A11G C66G, the self-cleavage came to 0.173.
Take G1C G27C: the self-cleavage turned out to be 0.201.
Next, C16A C66U: 0.416.
With U2A G13U, the self-cleavage was 0.186.
As to U2C U55C, the self-cleavage is 0.0641.
Next, A26U A36G: 0.723.
On to A43C G56U, for which the self-cleavage stood at 0.141.
Turning to C66G G68C, the self-cleavage amounted to 0.0397.
C66G G68U: the self-cleavage worked out at 0.0439.
Take A41G G68U: the self-cleavage came out at 0.364.
For U14A G57C, the self-cleavage stood at 0.132.
As for U58G G69C, the self-cleavage is 0.142.
With G57C G69C, the self-cleavage was 0.142.
Next, C50U G68A: 0.194; A23C G69A: 0.379.
On to G1U G21C, for which the self-cleavage is 0.112.
Next, A59C U63A: 0.169; C4G G56A: 0.249; G1C U62C: 0.0543.
For the variant C18G U55G, the self-cleavage amounted to 0.311.
U33G G51U: the self-cleavage was found to be 0.252.
For A30G U70A, the self-cleavage is 0.0747.
With C12U U52C the figure was 1.1; with G21U G42A, 0.158.
On to U33G U62A, for which the self-cleavage amounted to 0.126.
Consider A11U A49C, for which the self-cleavage amounted to 0.24.
With C3A G56C the figure was 0.147; with U9C G57A, 0.167.
Next, C10U A35C: 0.871; G1A G69A: 0.164.
With G34A A41U, the self-cleavage was 1.23.
For the variant G17C G69A, the self-cleavage came out at 0.404.
Turning to G25U C46G, the self-cleavage stood at 0.153.
As for U33A U67C, the self-cleavage is 0.104.
In the case of G13A C65G, the self-cleavage was determined as 0.238.
On to A47U G56U, for which the self-cleavage amounted to 0.148.
U2G A39C: the self-cleavage stood at 0.177.
Turning to U33C U67G, the self-cleavage was determined as 0.21.
Regarding C38A G54A, the self-cleavage came to 0.0977.
Consider C3U A64U, for which the self-cleavage is 0.238.
Regarding C4G U52C, the self-cleavage was 0.174.
Take C48G G54C: the self-cleavage turned out to be 0.189.
With G19C G32C, the self-cleavage came to 0.0926.
Consider G40C U53C, for which the self-cleavage was 0.168.
For the variant G15C A47U, the self-cleavage was found to be 0.142.
For the variant U5C A59C, the self-cleavage came to 0.105.
Next, A47U U60A: 0.0931; A23U A39U: 0.385.
In the case of U14C C48A, the self-cleavage was found to be 0.256.
As to U20C A28G, the self-cleavage is 1.17.
For C3G C38G, the self-cleavage stood at 0.0857.
With A31U G34U, the self-cleavage is 0.167.
